The results in this text go back to patent US20250368734A1 (ANTENGENE BIOLOGICS, published 2025).

Changes are numbered by the printed parent chain.

B1: 36A3G8 (antibody, V domains shown)
VH: QVQLQQSGAELARPGASVKMSCKASGYTFTTYTMHWIKQRPGQDLEWIGFINPSSGYTKYNQNFKDKATLTADKSSTTAYMQLNSLTSEDSAVYYCASPYGNIYFDVWGTGTTVTVSS
VL: DIVMTQSQKFMSTAVGDRVSITCKASQNVGTAVAWYQQKPGQSPKLLIYSASNRYTGVPDRFTGSGSGTDFTLTISNMQSEDLADYFCQQYSSYPLTFGAGTKLELK
notes: Mouse monoclonal antibody from hybridoma subclone
B2: 15D6G2 (antibody, V domains shown)
VH: EVQLVESGGDLVKPGGYLRLSCAASGFTFSSHGMSWVRQTPDKRLEWVATISSGGRNTYYPDSVKGRFTISRDNAKNILYLQMSSLKSEDTAMFYCTRHSGDAMDYWGQGTSVTVSS
VL: DILLTQSPAILSVSPGERVSFSCRASQSIGTNIHWYQQRTNGSPRLLIKYASESISGIPSRFSGSGSGTDFTLSINSVESEDIADYYCQQSKSWPTFGGGTKLEIK
notes: as for B1
B3: 26E2H6 (antibody, V domains shown)
VH: EVQLVESGGDLVKPGGSLKLSCAASGFTFSSYGMSWVRQTPDKRLEWVATISSGGSYTYYPDSVKGRFTISRDNAKNTLYLQMSSLKSEDTAMYYCARHATDYWGQGTTLTVSS
VL: QIVLTQSPAIMSASPGEKVTMTCSASSSVSYMHWYQQKSGTSPKRWIYDTSKLASGVPARFSGSGSGTSYSLTISSMEAEDAATYYCQQWSSNPLTFGAGTKLELK
notes: as for B1
B4: 12G12C2 (antibody, V domains shown)
VH: QIQLVQSGPELKMPGETVKISCKASGYTFTTYGLSWVKQAPGKGLKWMGWINTFSGVPIYADDFKGRFAFSLETSASTAYLQINNLKNEDTATYFCARWGIRQRGDYWGQGATLTVSS
VL: B3 VL with M32L, A59V, G67E, S91T, L95P, A99G, L105I
notes: as for B1
B5: 28H9C12 (antibody, V domains shown)
VH: EVQLVESGGGLVKPGGSLKLSCAASGFTFSDYGMHWVRQAPEKGLEWVAYISSGSSTIYYADTVKGRFTISRDNAKNTLFLQMTSLRSEDTAIYYCVRRPWYFDVWGTGTTVTVSS
VL: DVLMTQTPLSLPVSLGDQASISCRSSQSIVHSNGNTYLQWYLQKPGQSPKLLIYKVSNRFSGVPDRFSGSGSGTDFTLKISRLEAEDLGVYYCFQGSHVPFTFGSGTKLEIK
notes: Mouse monoclonal antibody from hybridoma subclone; also called 281H9C12
B6: 20C4E1 (antibody, V domains shown)
VH: EVRLVESGGALVRPGGSLKLSCAASGFTFSDYGMHWVRQAPEKGLEWIAFISSVSFTIYYADTVKGRFTISRDNAKNTLFLQMTSLRSEDTALYYCTRLGPHWYFDVWGTGTTVTVSS
VL: DVVLTQTPLSLPVSLGDQASISCRSSQSLVYSNGNTYLHWFLQKPGQSPQLLIYKVSNRFSGVPDRFSGSGSGTDFTLKISRVEAEDLGVYFCSQSTPVPTFGGGTKLEIK
notes: as for B1
B7: Bis-26E2H6 (bispecific antibody)
chain 1: B3 VH
chain 2: GGGGSGGGGSGGGGSEVQLVESGGGLVQPGRSLRLSCAASGFTFDNYAMHWVRQAPGKGLEWVSGISWNSGSIGYADSVKGRFTISRDNAKNSLYLQMNSLRAEDTALYYCAKDSRGYGDYSRGGAYWGQGTLVTVSSEIVMTQSPATLSVSPGERATLSCRASQSVSSNLAWYQQKPGQAPRLLIYGASTRATGIPARFSGSGSGTEFTLTISSLQSEDFAVYYCQQYNNWPWTFGQGTKVEIK
chain 3: B3 VL
B8: Bis-116G1G4 (bispecific antibody)
chain 1: EVQLQQSGPELVKPGASVKMSCKASGYTFTYYIMHWVKQEPGQGLQWIGYINPYNDGAYYSARFKGKATLTSDKSSSTAYMDLTSLTSEDSAVYYCARGGVRRYFDVWGAGTTVTVSS
chain 2: B7 chain 2
chain 3: DIQMTQSPSSLSASLGERVILTCRASQDIGSNLIWLQQKPDGTIKRLIYATFNLDSGVSKRFSGSRSGSDYSLTISSLDSEDFVDYYCLQYASSPYTFGGGTKLEIK
B9: Bis-108C4C12 (bispecific antibody)
chain 1: EVQLQQSGPELVKPGASVKMSCKASGYTFTSYVIHWVKQKTGQGLEWIGYFNPYNDGTKYNEEFKGKATLTSDKSSNTAYMELNSLTSDDSAVYFCARGGVRRYFDVWGAGTTVTVSS
chain 2: B7 chain 2
chain 3: B8 chain 3 with I20S, I34N, K39E, N53G, S59P, D79E, L89Q, S94F
B10: Bis-116F1G6 (bispecific antibody)
chain 1: B9 chain 1 with Q6H, S31T, I34M, T41P, F51I, E63K, N77S, N84S, D89E, F95Y
chain 2: B7 chain 2
chain 3: B8 chain 3 with I20S, I34N, K39E, D41N, N53T, S59P, D79E, S94F

T1 sequence (Q9NZD1 whole entry): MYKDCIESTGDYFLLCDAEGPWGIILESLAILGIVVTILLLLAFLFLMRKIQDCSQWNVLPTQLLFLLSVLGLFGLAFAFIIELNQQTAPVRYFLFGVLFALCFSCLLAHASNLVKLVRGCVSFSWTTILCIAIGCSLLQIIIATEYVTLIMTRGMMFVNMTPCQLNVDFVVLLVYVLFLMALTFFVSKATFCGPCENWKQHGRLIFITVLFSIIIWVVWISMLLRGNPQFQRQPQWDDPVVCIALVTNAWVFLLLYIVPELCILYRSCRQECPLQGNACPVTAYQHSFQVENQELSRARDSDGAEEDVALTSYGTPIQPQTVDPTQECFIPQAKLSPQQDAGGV

One test concerns the target T1, human GPRC5D (human, UniProt Q9NZD1 1-345).
T1 construct: whole, on cells; also called hGPRC5D; G-protein coupled receptor family C group 5 member D
The experiment in a line: FACS, OPM-2 cells. The source says:
(§1) The subcloning plates were screened by Mirrorball assay and the subclones with good binding ability were expanded to 24-wells for confirmation tests. The specificity and cross-reactivity of these subclones were confirmed with FACS analysis. Briefly, parental HEK293T, HEK293T cells stably over-expressing human GPRC5D protein (i.e., HEK293T-hGPRC5D), HEK293T cells stably over-expressing cynomolgus monkey GPRC5D protein (i.e., HEK293T-cynoGPRC5D), HEK293T cells stably over-expressing mouse GPRC5D protein (i.e., HEK293T-mGPRC5D), and OPM2 cells were incubated with antibodies produced by each subclone, respectively. Fluorescent dye-conjugated secondary antibody was used to detect the binding of the primary antibody with the cells. Median fluorescence intensity (MFI) was measured by FACS analysis,
(§2) As a result, 21 antibodies were discovered with unique sequences showing positive binding with HEK293T-hGPRC5D and OPM2 cells. Among which, some clones could also bind with HEK293T-cynoGPRC5D and/or HEK293T-mGPRC5D. […] ATG596 was a positive human IgG1 control antibody which comprises a VH region having an amino acid sequence as set forth in SEQ ID NO: 199, and a VL region having an amino acid sequence as set forth in SEQ ID NO: 200.
In the case of B1, the “% Positive” value amounted to 96.3% and the MFI was found to be 791.

As for B2, the “% Positive” value amounted to 99.4% and the MFI stood at 1740.

Take B3: the “% Positive” value was determined as 97.9% and the MFI was found to be 1150.

Turning to B4, the “% Positive” value was determined as 98.4% and the MFI amounted to 1070.

With B5, the “% Positive” value is 97.9% and the MFI was 1120.

With B6, the “% Positive” value is 99.5% and the MFI came to 2020.

In a further test the target is T1, human GPRC5D. Nature of the test: cell-based or functional assay.
As for B7, a half-maximal effect (EC50) was put at 30.5 nM and the Top killing % stood at 79.1%.

Take B8: the midpoint of the response, the EC50, lay at 1.88 nM and the Top killing % was 69.2%.

For B9, the EC50 (commonly the concentration at which the effect is half-maximal) was determined as 1.44 nM and the Top killing % was determined as 67.9%.

B10: the “EC50” value was 1.66 nM and the Top killing % amounted to 71.8%.

Another test deals with T2, mouse GPRC5D (mouse, UniProt Q9JIL6 1-344).
T2 construct: whole, on cells; HEK293T-mGPRC5D cells; also called mGPRC5D; murine GPRC5D
T2 sequence (looked up): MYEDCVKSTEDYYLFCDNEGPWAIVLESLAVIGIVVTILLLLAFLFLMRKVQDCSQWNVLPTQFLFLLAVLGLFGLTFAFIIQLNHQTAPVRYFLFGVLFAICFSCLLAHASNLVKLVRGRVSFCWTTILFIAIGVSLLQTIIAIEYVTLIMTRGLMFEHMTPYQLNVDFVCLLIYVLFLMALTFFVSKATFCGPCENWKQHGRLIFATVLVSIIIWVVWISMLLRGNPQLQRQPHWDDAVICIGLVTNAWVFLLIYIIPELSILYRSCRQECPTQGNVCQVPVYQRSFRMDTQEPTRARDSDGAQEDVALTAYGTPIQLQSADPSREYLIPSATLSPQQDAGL
The experiment in a line: FACS, HEK293T-mGPRC5D cells.
Description: as §1, §2
A general note: Flow cytometry measures light scatter and fluorescence of single cells or particles in a stream.
Regarding B2, the “% Positive” value is 14.6% and the MFI was found to be 150.

Regarding B3, the “% Positive” value stood at 68.4% and the MFI is 370.

As to B4, the “% Positive” value worked out at 99% and the MFI is 7080.

For the molecule B5, the “% Positive” value was found to be 1.6% and the MFI came out at 121.

For the molecule B6, the “% Positive” value turned out to be 82.7% and the MFI is 592.

The target of a further test is T1, human GPRC5D. The experiment in a line: FACS, HEK293T-hGPRC5D cells.
Description: as §1, §2
For the molecule B1, the “% Positive” value was 99.3% and the MFI turned out to be 31800.

With B2, the “% Positive” value came to 99.5% and the MFI stood at 32800.

For B3, the “% Positive” value came to 99.8% and the MFI is 27200.

On to B4, for which the “% Positive” value came to 98.7% and the MFI was found to be 32100.

Take B5: the “% Positive” value was 99.6% and the MFI was determined as 25100.

For the molecule B6, the “% Positive” value was found to be 99.9% and the MFI is 38900.

Another test concerns the target T3, cynomolgus monkey GPRC5D (cynomolgus monkey).
T3 construct: whole, on cells; HEK293T-cynoGPRC5D cells; also called cynoGPRC5D
Nature of the test: FACS, HEK293T-cynoGPRC5D cells.
Description: as §1, §2
As for B1, the “% Positive” value stood at 96.6% and the MFI turned out to be 3110.

Consider B2, for which the “% Positive” value turned out to be 99.7% and the MFI worked out at 7760.

Consider B3, for which the “% Positive” value turned out to be 1% and the MFI worked out at 116.

With B4, the “% Positive” value turned out to be 96.2% and the MFI was found to be 24700.

Consider B5, for which the “% Positive” value was 99.8% and the MFI amounted to 18000.

Regarding B6, the “% Positive” value turned out to be 99.2% and the MFI amounted to 31300.
